In IntAct's records for PubMed 19141279:

B1: Ras-related protein Rab-6A (Homo sapiens), P20340-1 (parent)
chain: MSTGGDFGNPLRKFKLVFLGEQSVGKTSLITRFMYDSFDNTYQATIGIDFLSKTMYLEDRTVRLQLWDTAGQERFRSLIPSYIRDSTVAVVVYDITNVNSFQQTTKWIDDVRTERGSDVIIMLVGNKTDLADKRQVSIEEGERKAKELNVMFIETSAKAGYNVKQLFRRVAAALPGMESTQDRSREDMIDIKLEKPQEQPVSEGGCSC
partner: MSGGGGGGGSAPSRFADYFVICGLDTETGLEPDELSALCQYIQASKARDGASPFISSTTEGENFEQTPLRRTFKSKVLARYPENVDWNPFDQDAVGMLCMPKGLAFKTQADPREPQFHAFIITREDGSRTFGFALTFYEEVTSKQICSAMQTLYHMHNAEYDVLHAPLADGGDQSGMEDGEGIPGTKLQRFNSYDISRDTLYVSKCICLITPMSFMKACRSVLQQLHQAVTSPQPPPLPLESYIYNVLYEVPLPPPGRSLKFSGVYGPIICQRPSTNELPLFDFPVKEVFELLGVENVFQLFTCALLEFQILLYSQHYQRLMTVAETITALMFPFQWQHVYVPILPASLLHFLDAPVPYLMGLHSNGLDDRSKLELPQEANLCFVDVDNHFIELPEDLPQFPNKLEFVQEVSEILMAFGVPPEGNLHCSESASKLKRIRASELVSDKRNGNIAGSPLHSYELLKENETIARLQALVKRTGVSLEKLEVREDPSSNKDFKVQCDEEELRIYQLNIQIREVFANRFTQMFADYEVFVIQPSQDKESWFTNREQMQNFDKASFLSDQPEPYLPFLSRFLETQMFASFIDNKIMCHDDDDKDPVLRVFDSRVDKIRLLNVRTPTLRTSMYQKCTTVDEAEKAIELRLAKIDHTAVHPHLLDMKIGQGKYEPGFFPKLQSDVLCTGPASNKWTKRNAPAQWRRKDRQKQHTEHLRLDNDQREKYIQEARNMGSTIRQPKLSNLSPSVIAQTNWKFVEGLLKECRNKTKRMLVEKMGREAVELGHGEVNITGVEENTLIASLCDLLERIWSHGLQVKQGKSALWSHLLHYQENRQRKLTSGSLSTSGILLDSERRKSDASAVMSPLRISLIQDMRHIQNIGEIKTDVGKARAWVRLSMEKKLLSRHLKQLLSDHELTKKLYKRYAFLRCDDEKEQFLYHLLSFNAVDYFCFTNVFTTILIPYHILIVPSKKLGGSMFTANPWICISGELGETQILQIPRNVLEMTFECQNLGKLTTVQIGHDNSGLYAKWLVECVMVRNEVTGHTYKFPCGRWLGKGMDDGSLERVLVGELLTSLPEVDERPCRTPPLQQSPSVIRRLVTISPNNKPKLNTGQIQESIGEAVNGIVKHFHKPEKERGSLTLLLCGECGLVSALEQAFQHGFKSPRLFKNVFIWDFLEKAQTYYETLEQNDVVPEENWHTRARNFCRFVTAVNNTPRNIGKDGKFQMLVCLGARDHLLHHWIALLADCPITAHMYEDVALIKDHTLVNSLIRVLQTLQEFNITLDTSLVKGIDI

Variants of: B1
Conditions: with den5a_mouse Dennd5a

effect of a mutation on the interaction	Variant
disrupting interaction	I46E
